Among the data in patent US20250376532A1 (published 2025) are Kd and koff values, retold here.

The target in one assay is rDR5-IgG4-Fc (UniProt O14763 56-210, biotinylated for BLI (site not stated)). Briefly: BLI. In general terms: Biolayer interferometry detects binding as a change in optical thickness at a sensor tip.
Assay [1] deals with rDR5-IgG4-Fc KYGQ:AAGA (45-48) Mut. Briefly: BLI.
In a further assay the target is DR5 (WT) (UniProt O14763 56-210, biotinylated for BLI (site not stated)). The assay is described as follows: ELISA.
The next assay addresses DR5 (3RA). Briefly: ELISA.
In assay [2] the target is rDR5-IgG4-Fc EMCR:AACR (98-101) Mut (90s Mut) (UniProt O14763 56-210, biotinylated for BLI (site not stated)). The assay is described as follows: BLI.
Assay [3] concerns the target rDR5-IgG4-Fc SGE:AAA (135-137) NS Mut. The assay is described as follows: BLI.
Assay [4] deals with T1, rDR5-IgG4 (recombinant wild type DR5 with IgG4 Fc) (UniProt O14763 56-210, biotinylated for BLI (site not stated)). The assay is described as follows: ELISA.
The target of assay [5] is T1, rDR5-IgG4 (recombinant wild type DR5 …). Briefly: ELISA. The source holds these as a separate data set.
Assay [6] has the same target. Briefly: BLI.
The next assay has as its target R104Y DR5. Briefly: BLI.
The next assay addresses R104W DR5. The assay is described as follows: BLI.
In assay [7] the target is T1, rDR5-IgG4 (recombinant wild type DR5 …). The assay is described as follows: BLI. The source holds these as a separate data set.
Another assay deals with KKCR. The assay is described as follows: ELISA. Background: An ELISA detects its analyte on a solid surface through an enzyme-linked reagent.
The next assay has as its target RKCSR DR5. The assay is described as follows: BLI.
The target of the next assay is Monkey DR5. The assay is described as follows: BLI.
A further assay deals with RKCAR DR5. Briefly: BLI.
The target in another assay is Chimp DR5. The assay is described as follows: BLI.

Sequence of R104Y DR5 (chain, as listed by the source R104Y): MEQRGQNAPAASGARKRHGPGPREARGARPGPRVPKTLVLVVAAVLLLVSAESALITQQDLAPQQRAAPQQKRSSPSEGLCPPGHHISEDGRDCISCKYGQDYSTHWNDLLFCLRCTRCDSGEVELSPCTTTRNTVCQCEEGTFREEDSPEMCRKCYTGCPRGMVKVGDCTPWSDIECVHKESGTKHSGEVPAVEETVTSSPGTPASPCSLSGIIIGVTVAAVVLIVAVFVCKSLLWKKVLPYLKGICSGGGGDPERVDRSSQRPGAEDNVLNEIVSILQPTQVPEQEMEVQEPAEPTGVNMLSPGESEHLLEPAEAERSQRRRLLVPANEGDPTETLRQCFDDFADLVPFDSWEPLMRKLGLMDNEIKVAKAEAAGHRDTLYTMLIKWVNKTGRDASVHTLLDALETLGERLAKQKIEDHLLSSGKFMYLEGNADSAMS
Sequence of R104W DR5 (chain, as listed by the source R104W): as the sequence (chain, as listed by the source R104Y) above, with Y157W counted along it

B1: KMTR2 (antibody, V domains shown)
VH: QVQLVQSGAEMKKPGASVKVSCKTSGYTFTNYKINWVRQAPGQGLEWMGWMNPDTDSTGYPQKFQGRVTMTRNTSISTAYMELSSLRSEDTAVYYCARSYGSGSYYRDYYYGMDVWGQGTTVTVSS
VL: EIVLTQSPATLSLSPGERATLSCRASQSVSSYLAWYQQKPGQAPRLLIYDASNRATGIPARFSGSGSGTDFTLTISSLEPEDFAVYYCQQRSNWPLTFGGGTKVEIKR
In the case of B1, the Kd is less than 0.001 nM with rDR5-IgG4-Fc, 0.088 nM in the assay with DR5 (WT) and 0.087 nM with DR5 (3RA). The dissociation rate constant (koff) turned out to be 1e-07 s⁻¹ in [1], 1.61e-05 s⁻¹ in assay [2] and 2.01e-05 s⁻¹ in assay [3].

B2: lexatumumab (antibody, V domains shown)
VH: EVQLVQSGGGVERPGGSLRLSCAASGFTFDDYGMSWVRQAPGKGLEWVSGINWNGGSTGYADSVKGRVTISRDNAKNSLYLQMNSLRAEDTAVYYCAKILGAGRGWYFDLWGKGTTVTVSS
VL: SSELTQDPAVSVALGQTVRITCQGDSLRSYYASWYQQKPGQAPVLVIYGKNNRPSGIPDRFSGSSSGNTASLTITGAQAEDEADYYCNSRDSSGNHVVFGGGTKLTVL
For B2, the dissociation constant Kd is 0.081 nM in [4]; 0.032 nM in assay [5]; 0.0376 nM in [6]; 1.93 nM with R104Y DR5; 1.82 nM in the assay with R104W DR5; 0.519 nM in [7].

B3: Antibody (antibody, V domains shown)
VH: B2 VH
VL: B2 VL
As to B3, the Kd with KKCR is 1.19 nM.

B4: Biot-Lexa (antibody, V domains shown)
VH: B2 VH
VL: B2 VL
Consider B4, for which the Kd was 0.215 nM with RKCSR DR5, 0.014 nM with Monkey DR5, 0.266 nM with RKCAR DR5 and less than 0.001 nM with Chimp DR5.

Broadly, the Kd is the equilibrium constant for the complex coming apart. Broadly, the koff is the first-order rate constant of dissociation.
